Reference: patent US20220112292A1 (ALETA BIOTHERAPEUTICS, published 2022)

T1: CLL-1 on U937 cells (human, UniProt Q5QGZ9 1-265)
T1 construct: whole, on cells; also called CLEC12A; Clec12A
T1 sequence: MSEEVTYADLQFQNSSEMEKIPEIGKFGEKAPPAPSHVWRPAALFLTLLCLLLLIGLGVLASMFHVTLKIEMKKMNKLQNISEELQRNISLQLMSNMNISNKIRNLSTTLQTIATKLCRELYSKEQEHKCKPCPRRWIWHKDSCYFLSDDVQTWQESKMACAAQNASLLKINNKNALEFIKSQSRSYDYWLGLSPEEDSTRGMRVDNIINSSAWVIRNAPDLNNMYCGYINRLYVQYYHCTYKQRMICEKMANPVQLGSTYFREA

T2: Clec12A-His (Sino Biological, 11896-H07H) (human, UniProt Q5QGZ9 65-265)
T2 construct: Bought soluble protein; also called soluble CLEC12a-His; Sino Biological Clec12A
T2 chain: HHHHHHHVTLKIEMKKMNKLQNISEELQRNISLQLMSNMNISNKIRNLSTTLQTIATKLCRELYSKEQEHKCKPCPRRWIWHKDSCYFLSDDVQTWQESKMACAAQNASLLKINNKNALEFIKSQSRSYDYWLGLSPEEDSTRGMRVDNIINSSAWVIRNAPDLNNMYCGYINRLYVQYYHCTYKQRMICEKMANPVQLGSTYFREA


What was measured:
[1] = target: T1, CLL-1 on U937 cells; test: flow cytometry on U937 cells, clone lysate, anti-cMyc-PE (Table 3 summary)
[2] = target: T2, Clec12A-His (Sino Biological, …); test: ELISA on plate coated with CLEC12a-His; unlabeled VHH at 10 ug/ml first, biotinylated VHH at 0.2 ug/ml second, streptavidin-HRP
Method: ELISAs were used to determine if the VHH clones recognized distinct or similar epitopes. […] The plate was blocked with 0.3% nonfat milk in TBS (200 ul/well) for 1 hr at RT. The plates were washed 3× with 1×TBST (0.1 M Tris, 0.5 M NaCl and 0.05% Tween-20). The test anti-CLEC12a VHHs were added at 10 ug/ml horizontally across the plate, 100 ul per well and incubated for 1 h. Without washing, the test anti-CLEC12a biotinylated VHHs were added at 0.2 ug/ml vertically down the plate, 100 ul per well and incubate for 1 h. After being washed 3× with 1×TBST, HRP-conjugated streptavidin (Pierce #21130) at 1:2000 (100 ul/well) was added, followed by incubation at RT in the dark for 1 hr. For detection, 1-Step Ultra TMB-ELISA reagent (Thermo Fisher #34028) was added at 100 ul per well and read at 450 nm. […] The 1H1 VHH was distinct from these, and 2C2 was intermediate. Results are depicted in FIGS. 7A-7D.

[3] = target: T1, CLL-1 on U937 cells; test: flow cytometry on U937 cells, % binding against ng/ml, detected with a-His-PE; EC50 of the fitted curve
Method: (§1) U937 cell binding by VHH clones was assessed using varying doses to determine EC50s. Briefly, the method included: VHH clones (3 ug/ml as starting conc./test, with 3× serial dilutions) in FACS buffer were added to Fc blocked U937 or 293T-CLL1 cells (2.5×10\hat{ }5), the mixtures were incubated for 30 min at 4° C., then washed twice with FACS buffer by spinning at 500G for 2 min; anti-His-PE was added to cells, the mixture was incubated for 30 min at 4° C. and washed twice with FACS buffer by spinning at 500G for 2 min; 1% PFA (Paraformaldehyde) in PBS was added to cell pellet to fix the cells, followed by FACS analysis. VHH clones tested: 1B5: stock=1.6 mg/ml; 1H1: stock=1.9 mg/ml; 1G6: stock=1.1 mg/ml; 2F3: stock=1.45 mg/ml; 2F5: stock=0.5 mg/ml; 2H3: stock=2 mg/ml.

[4] = target: T1, CLL-1 on U937 cells; test: flow cytometry on U937 cells, VHH in 3-fold dilutions, detected with a-His-PE; percent of cells positive
Method: as §1

[5] = target: T1, CLL-1 on U937 cells; test: flow cytometry on U937 cells, 3x serial dilutions from 3 ug/ml, anti-His-PE
Method: as §1

[6] = target: T1, CLL-1 on U937 cells; test: flow cytometry on U937 cells, VHH at 3 ug/ml, detected with a-His-PE; a-His-PE alone 1.1% and 5,576.5, unstained 0.6% and 5,793.5
Method: U937 cell binding by VHH clones was assessed. Briefly, the method included: U937 cells (2.5×10\hat{ }5) were Fc blocked (human Fc block, BD Cat. #BDB564220) for 10 min at room temperature, then washed once with FACS buffer (PBS+1% BSA+0.1% Sodium Azide) by spinning at 500G for 2 min; VHH clones (3 μg/ml as final conc) in FACS buffer were added to the cell pellets and incubated for 30 min at 4° C., then washed twice with FACS buffer by spinning at 500G for 2 min; anti-His-PE (R&D Systems, Cat. #IC050P) was added to cells; the mixture was incubated for 30 min at 4° C. and washed twice with FACS buffer by spinning at 500G for 2 min; 1% PFA (Paraformaldehyde) in PBS was added to cell pellet to fix the cells, followed by FACS analysis. VHH clones tested: 1B5: stock=1.6 mg/ml; 1H1: stock=1.9 mg/ml; 1G6: stock=1.1 mg/ml; 2F3: stock=1.45 mg/ml; 2F5: stock=0.5 mg/ml; 2H3: stock=2 mg/ml. As shown in FIGS. 2A-2C, binding of clones 1H1, 1G6, 2F5 and 2H3 to U937 cells was detected with anti-His-PE; very little binding of clones 1B5 and 2F3 to U937 cells could be detected by anti-His-PE.

Row | Binder | % FACS positive [1] [%] | binding result [2] | % of This Plot (R3 PE+) [6] [%] | Mean FL2-A (R3 gate) [6] | further results
1 | VHH clone 2G10 (VHH, Includes myc and His tags) VHH: QVQLQQSGGGLVQAGGSLRLSCAASGSIFSINAMGWYRQAPGKRREMVAVVSRFGETTYTGSVKGRFTISRINRNNTVFLQMNRLKPEDTAVYYCNARIRGNYGSRIDYWGQGTQVTVSS | 59.7 | – | – | – | –
2 | VHH clone 1B1 (VHH, also called 2A6; 2A10) VHH: QVQLQESGGGLVQAGGSLRLSCAASGSIFAINEINLMGWYRQAPGKQRELVAACASDGNTYYADSVKGRFTISRDNAEKTVYLQMNNLKPDDTAVYYCDANSRGNYYSGQGTQVTVSS | – | binds | – | – | –
3 | VHH clone 2H10 (VHH, includes myc and His tags; also called 1G3) VHH: QVQLQEFGGGLVQAGGSLRLSCAASGSIFAINEINLMGWYRQAPGKQRELVAACASDGNTYYADSVKGRFTISRDNAEKTVYLQMNNLKPDDTAVYYCDANSRGNYYSGQGTQVTVSS | 85.9 | – | – | – | –
4 | VHH clone 2F5 (VHH, Includes myc and His tags) VHH: QVQLQQSGGGLAQTGGSLILSCAASGSIFAINEINLMGWYRQAPGKQRELVAACASDGNTYYADSVKGRFTISRDNAEKTVYLQMNNLKPDDTAVYYCDANSRGNYYSGQGTQVTVSS | 72.7 | binds | 95.5 | 9260 | EC50 [3]: 7.45 ng/mL; % binding at 1.4 ng/ml [4]: 4.6%; % binding at 4.1 ng/ml [4]: 24.2%; % binding at 12.3 ng/ml [4]: 59.3%; % binding at 37.0 ng/ml [4]: 83.1%; % binding at 111.1 ng/ml [4]: 86%; % binding at 333.3 ng/ml [4]: 86.7%; % binding at 1000 ng/ml [4]: 85.9%; % binding at 3000 ng/ml [4]: 86.4%; EC50 [5]: 0.47 nM
5 | VHH clone 2A11 (VHH, Includes myc and His tags) VHH: QVQLQESGGGLVQPGGSLRLSCAASGSIFAINEINLMGWYRQAPGKQRELVAACASDGNTYYADSVKGRFTISRDNAEKTVYLQMNNLKPDDTAVYYCDANSRGNYYSGQGTLVTVSS | 86.3 | – | – | – | –
6 | VHH clone 1G6 (VHH, includes myc and His tags; also called 2G11; 2H2) VHH: QVQLQQSGGGLVQAGGSLRLSCAASGSIFAINEINLMGWYRQAPGKQRELVAACASDGNTYYADSVKGRFTISRDNAEKTVYLQMNNLKPDDTAVYYCDANSRGNYYSGQGTQVTVSS | – | binds | 95.6 | 9310 | EC50 [3]: 7.72 ng/mL; % binding at 1.4 ng/ml [4]: 6%; % binding at 4.1 ng/ml [4]: 26.8%; % binding at 12.3 ng/ml [4]: 56.7%; % binding at 37.0 ng/ml [4]: 83.1%; % binding at 111.1 ng/ml [4]: 87.7%; % binding at 333.3 ng/ml [4]: 88.2%; % binding at 1000 ng/ml [4]: 88.6%; % binding at 3000 ng/ml [4]: 88.9%; EC50 [5]: 0.49 nM
7 | VHH clone 2C8 (VHH, Includes myc and His tags) VHH: QVQLVESGGGLVQAGGSLRLSCAASGSIFAINEINLMGWYRQAPGKQRELVAACASDGNTYYADSVKGRFTISRDNAEKTVYLQMNNLKPDDTAVYYCDANSRGNYYSGQGTLVTVSS | 73.4 | – | – | – | –
8 | VHH clone 2A8 (VHH, Includes myc and His tags) VHH: QVQLQAFGGGMVQAGESLRLSCVASGNDISGSAMAWYRAHLGAERELVAVDAPRERPFYIDPVIGRFTISRDDRNKMLYLQMNDLRPDDTATYWCGPSLRTFHGREWYRPPWFTSWGQGTQVTVSS | 40.1 | – | – | – | –
9 | VHH clone 1B11 (VHH, Includes myc and His tags) VHH: AVQLQESGGGLVQAGGSLRLSCAASGSDRSINVMNWYRQAPGKQRELVAAITSGGTTNYAQSVKGRVTISRDSAKNTVYLQMNSLKPEDTAVYFCKADTRWGGMYWGPGTQVTVSS | 77.8 | – | – | – | –
10 | VHH clone 1A10 (VHH, Includes myc and His tags) VHH: QVQLQESGGGLVQVGESLRLSCVVSGDTRSINLMGWYRQAPGKQRELVAACASDGNTYYADSVKGRFTISRDNAEKTVYLQMNNLKPDDTAVYYCDANSRGNYYSGQGTLVTVSS | 84.9 | binds | – | – | –
11 | VHH clone 2F3 (VHH, Includes myc and His tags) VHH: QVQLQAFGGGLVQPGGSLRLSCVVSGTMFSGKDVNWLRQAPGKHVEVVATVSSDGGTDYADFVKGRFTISRDDAKNTVNLQMNSLEPEDTANYMCHFLWGRHYWGQGTQVTVSS | – | – | 12.4 | 3570 | –
12 | VHH clone 1D2 (VHH, Includes myc and His tags) VHH: QVQLQQSGGGLVQPGGSLRLSCAASGFAFDDYAMIWVRQGPGKGLEWVSSISWNGGGTYYAESIVGRFTVSRDNAKKMVYLQMNGLKSEDTAMYYCVKLVDSGWYSAYDYWGQGTQVTVSS | 14.6 | – | – | – | –
13 | VHH clone 1B5 (VHH, Includes myc and His tags) VHH: QVQLQESGGGLVQAGGSLRLSCVVSGATSNVNAMGWYRQAPGKERELVAAISSGGSTSYRDSVKGRFTISRDNAKNTLYLQMNSLKPEDTAMYYCAAQDWATEGYEYDYWGQGTLVTVSS | – | – | 2.3 | 4130 | –
